In patent publication US20120271039, “METHOD FOR PURIFYING ACTIVE GLA-DOMAIN COAGULATION PROTEINS” (LFB BIOTECHNOLOGIES, published 2012):

What was measured:
[1] = target: Coagulation Factor VII (plasma) (Homo sapiens, UniProt P08709 P08709:61-466); experiment: affinity chromatography; Ca/Mg buffer, EDTA elution; settings: tags: plasma FVII (98-99% pure; ACSET, LFB, in column tests); label: biotin
Description: The FVII is eluted with a 20 mM Tris-HCl+10 mM EDTA buffer at pH 7.5. The elution peak is collected according to the OD profile.
In FIG. 15, the injection (1) of human plasma […] concentrate is followed rapidly by the elimination peak (2) of the fraction not retained on the affinity support. The affinity support continues to saturate with the coagulation protein of interest: complexes between (i) the anti-GLA nucleic aptamers of the affinity support and (ii) the human plasma FVII molecules initially contained in the composition to be purified were formed. After running the composition to be purified, a step of washing the column with the previously specified washing buffer is carried out. Then, the elution step is carried out by injecting the elution buffer solution comprising a final concentration of 10 mM of EDTA.

[2] = target: T1, Coagulation Factor IX (recombinant) (Homo sapiens, UniProt P00740 P00740:47-461); experiment: SPR; highest affinity of the 30 core aptamers; FIX immobilized; 50 mM Tris, 10 mM CaCl2, 4 mM MgCl2, pH 7.5; settings: tags: BeneFIX (nonacog alfa, Wyeth); correctly gamma-carboxylated
Description: (§1) Each sample was injected sequentially onto the same chip (solid support) containing the immobilized human recombinant FIX. Controls are obtained by injecting blanks containing only run buffer. All the injections were carried out with a flow rate of 30 μl/min for 60 sec; after the injection, run buffer was injected onto the chip at an identical flow rate for 120 sec.
(§2) Elution buffer (10 mM EDTA) was then injected for 60 sec with a flow rate of 30 μl/min to uncouple the aptamer from the immobilized human FIX.
(§3) The chip makes it possible to observe in real time the formation and the disruption of interactions between the immobilized human recombinant FIX and each of the aptamers, having the sequences SEQ ID Nos. 3 and 6 to 35, tested, through surface plasmon resonance (SPR). Binding to the immobilized recombinant human FIX generates an increase in signal expressed in resonance units (RU) recorded by the apparatus (FIG. 6). These analyses are carried out with the Biacore T100 SPR apparatus (GE). The modeling of the recorded interactions is carried out by means of the Biaevaluation software (GE).

[3] = target: T1, Coagulation Factor IX (recombinant); experiment: SPR; FIX immobilized; 50 mM Tris, 10 mM CaCl2, 4 mM MgCl2, pH 7.5; settings: tags: BeneFIX (nonacog alfa, Wyeth); correctly gamma-carboxylated
Description: as §1, §2, §3

T1 sequence (P00740 47-461, one chain of several): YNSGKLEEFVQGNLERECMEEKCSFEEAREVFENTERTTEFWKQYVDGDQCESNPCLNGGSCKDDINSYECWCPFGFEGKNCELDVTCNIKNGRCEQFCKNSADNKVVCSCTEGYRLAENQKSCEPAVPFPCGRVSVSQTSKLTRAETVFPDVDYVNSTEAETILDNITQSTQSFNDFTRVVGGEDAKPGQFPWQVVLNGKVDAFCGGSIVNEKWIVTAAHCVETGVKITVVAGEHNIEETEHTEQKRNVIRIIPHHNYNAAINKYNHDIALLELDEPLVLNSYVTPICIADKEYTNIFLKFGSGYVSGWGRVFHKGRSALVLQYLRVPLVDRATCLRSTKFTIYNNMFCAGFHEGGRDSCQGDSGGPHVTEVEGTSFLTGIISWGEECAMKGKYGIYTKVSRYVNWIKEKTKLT
Coagulation Factor VII (plasma), sequence (P08709 61-466, one chain of several): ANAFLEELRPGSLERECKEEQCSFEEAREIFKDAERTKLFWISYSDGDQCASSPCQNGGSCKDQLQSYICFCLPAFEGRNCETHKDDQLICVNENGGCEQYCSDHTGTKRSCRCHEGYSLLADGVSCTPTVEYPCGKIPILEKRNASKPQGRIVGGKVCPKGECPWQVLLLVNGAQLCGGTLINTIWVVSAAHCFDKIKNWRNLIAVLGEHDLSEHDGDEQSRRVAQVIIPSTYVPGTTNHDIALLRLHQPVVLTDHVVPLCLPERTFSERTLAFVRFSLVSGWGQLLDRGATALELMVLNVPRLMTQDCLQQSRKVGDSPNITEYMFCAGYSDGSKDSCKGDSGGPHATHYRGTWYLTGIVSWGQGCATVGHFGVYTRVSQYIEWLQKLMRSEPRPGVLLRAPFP

Question: Does CCGCACACCACGCGCATGACCCCGCGCACACGACTTGAAGTAGC (ssDNA) [Mapt-2-CS] bind [1]?
Answer: binds

Question: Does CGCACATGACTTGAAGTAAAACGCGAATTACAGACCAAACCCG (ssDNA) [Mapt-1.2-CS] bind [2]?
Answer: binds

Question: Does CGCACATGACTTGAAGTTAAACGCGAATTACAAACCCAGCCCCC (ssDNA) [Mapt-1 core sequence (Mapt-1-CS)] bind [3]?
Answer: binds
